In patent US20240148892A1 (DUALITY BIOLOGICS SUZHOU, published 2024):

Key:
[1] = target: T1, human full-length B7H3 expressed on MCF-7 cells (human, UniProt Q5ZPR3 29-534); experiment: cell-based or functional assay
T1 sequence: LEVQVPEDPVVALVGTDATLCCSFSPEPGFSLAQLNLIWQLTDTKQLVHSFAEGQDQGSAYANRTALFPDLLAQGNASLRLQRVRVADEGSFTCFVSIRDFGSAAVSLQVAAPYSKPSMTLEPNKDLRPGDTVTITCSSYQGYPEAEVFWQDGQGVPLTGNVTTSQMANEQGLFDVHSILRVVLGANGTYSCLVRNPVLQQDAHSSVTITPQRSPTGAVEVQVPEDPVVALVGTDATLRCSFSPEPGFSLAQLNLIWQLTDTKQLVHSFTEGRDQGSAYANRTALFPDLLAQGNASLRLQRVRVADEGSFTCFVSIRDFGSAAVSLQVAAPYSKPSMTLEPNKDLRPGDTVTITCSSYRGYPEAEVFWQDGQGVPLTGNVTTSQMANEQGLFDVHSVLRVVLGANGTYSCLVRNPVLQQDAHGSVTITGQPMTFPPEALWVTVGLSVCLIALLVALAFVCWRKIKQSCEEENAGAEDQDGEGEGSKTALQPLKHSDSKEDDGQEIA

[2] = target: T2, Human B7-H4 protein, His Tag (human, UniProt Q7Z7D3 29-258); experiment: ELISA, B7 family protein immobilized on plate, serially diluted antibody
T2 construct: Bought protein; also called ACRO B74-H5222; not shown: His tag
T2 sequence (looked up): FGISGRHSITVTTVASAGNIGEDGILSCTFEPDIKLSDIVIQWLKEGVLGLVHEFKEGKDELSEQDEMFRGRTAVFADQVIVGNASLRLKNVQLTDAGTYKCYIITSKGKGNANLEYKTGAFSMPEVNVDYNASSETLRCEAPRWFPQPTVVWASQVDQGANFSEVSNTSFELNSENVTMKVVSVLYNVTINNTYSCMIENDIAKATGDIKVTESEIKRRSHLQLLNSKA
Description: Human PD-Ll protein (see the table above), human B7-H2 protein, human B7-H3 protein, human B7-H4 protein, human B7-H5 protein, human B7-H6 protein, human B7-1 protein, human B7-2 protein, human PD-L2 protein, human B7-H7 protein, and human BTNL2 protein were separately immobilized on 96-well plates by incubation at 4° C. overnight. The 96-well plates were then blocked by incubation with 1% BSA in PBS at 37° C. for 1 h. After blocking, the 96-well plates were washed 3 times with PBST (PBS containing 0.05% Tween 20). […] After incubation, the 96-well plates were washed 3 times with PBST, incubated with a secondary antibody (see the table above) in binding buffer at 37° C. for 1 h, and then washed again. TMB was added for color development, and the reaction was stopped by 1 M H₂SO₄.

B1: W301088-1.145.16-z3-p1-uIgG1KV320 (antibody, V domains shown)
VH: QVQLQESGPGLVKPSQTLSLTCTVTDYSITGDYAWNWIRQHPGKGLEWIGYISYSGSTSYNPSLQSRVTISRDTSKNQFSLKLSSVTAADTAVYFCARSLGRRWYFVVWGQGTTVTVSS
VL: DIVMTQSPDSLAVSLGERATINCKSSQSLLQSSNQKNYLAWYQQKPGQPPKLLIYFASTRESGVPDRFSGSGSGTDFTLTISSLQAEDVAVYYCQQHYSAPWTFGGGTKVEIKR
notes: Humanized, PTM-removed (VL N027dQ) human IgG1 LALA kappa antibody; also called WBP301088; W301088-z3-p1
Antibody internalization EC50, MCF-7 cells (value in running text, differs from Table 16) [1]: 0.51 nM
binding result [2]: no binding
